Results as given in the supplement of paper PMC10126150.
± gives the standard deviation of the averaged measurements.

The sequences below were run on ATP (assay: switch fluorescence ratio, 500 uM ATP over buffer (Cy3 cluster intensity, sum of 5 cycles each) (fold (ratio)); higher = stronger signal-on switching upon ATP binding; sequences stand for … in TCGTCGGCAGCGTCAGATGTGTATAAGAGACAGTTTTTTTTTTTTTTTTTTTTTTTTT…TC). Details: aptamer strand: ATP DNA aptamer (quencher-CACCTGGGGGAGTATTGCGGAGGAAGG + anchor), 100 nM annealed; ATP concentration: 500 uM.
Procedure, shortened: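 Values give the fluorescence ratio for each switch-domain sequence, averaged from per-cluster ratios of summed target-cycle to summed buffer-cycle Cy3 intensity. The Cy3-labelled switching-strand clusters sat on a modified Illumina MiSeq flow-cell, were annealed to 100 nM quencher-labelled ATP aptamer, and were imaged in selection buffer, then after 15 min with 500 uM ATP at 22 °C. Five cycles ran with NaOH stripping and re-annealing between them, and clusters outside 100-1000 RFU were excluded.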
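Also: ATP exposure 15 min at 22 °C before imaging.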

Sequence | switch fluorescence ratio
TGCGTGGGGA | 1.04 ± 0.0057
GAGGGGTCAG | 1 ± 0.039
GGCAGGCGGA | 1 ± 0.012
GATGGGTTTC | 0.987 ± 0.012
ATCGTGGGTG | 0.984 ± 0.015
GGGGGTTTAC | 1.01 ± 0.013
CTCTCAAATG | 1.03 ± 0.045
TTTTATGAAG | 1.04 ± 0.02
TTTAGATTCA | 1.001 ± 0.0043
TTATGGGGAT | 0.988 ± 0.019
TTTAGCATGT | 1.04 ± 0.073
TCATAGTATG | 0.982 ± 0.04
TAAGGCCTGT | 0.9978 ± 0.0099
GATTTGTAAA | 0.99 ± 0.029
GATCGAAAGG | 0.966 ± 0.025
GGAGTCTTGT | 1.01 ± 0.03
ATTTTCTCCG | 1.43 ± 0.63
GCGACTGCGG | 0.982 ± 0.021
CAGTTTGAGT | 1.006 ± 0.0014
GCTGTTTTTT | 1 ± 0.044
CTTTTAACTC | 1.01 ± 0.024
TGAAATAGGT | 0.99 ± 0.036
AGTTTAGTGA | 0.996 ± 0.044
TTATACAGTG | 1 ± 0.031
CATTGTTAAT | 1.01 ± 0.04

Sequence | switch fluorescence ratio
AGGGTGACAG | 0.9566 ± 0.0056
GCGAGGGATT | 1.02 ± 0.032
TACGATGAGG | 1.05 ± 0.018
AACCATTAGG | 0.9956 ± 0.0053
AAGGGTTTAA | 0.98 ± 0.018
TAGCTGGATG | 0.98618 ± 0.00039
ATTGATTTCT | 1.012 ± 0.006
CCCTTTTTTG | 1.02 ± 0.05
GGGATGGGGC | 1.04 ± 0.042
ATTCGGGTGT | 1.151 ± 0.0081
TGTTTGGGAA | 1 ± 0.038
TTAGGTGTCC | 1.08 ± 0.057
AACGGTAAAT | 1.01 ± 0.085
TAGGTGACAA | 1 ± 0.015
GTTATCTTAG | 1.01 ± 0.025
AAAGTAGTGT | 1.024 ± 0.004
CTCAGTAGTT | 1.018 ± 0.0053
CGGGAGCTGG | 1.02 ± 0.023
GGTATGTTTT | 0.978 ± 0.037
CAACATCTCG | 0.993 ± 0.019
CGGTATAGTT | 0.988 ± 0.022
TGCGGGTGGT | 1.035 ± 0.0014
TTAAATTGAT | 0.987 ± 0.04
TGTTTCTGGT | 0.969 ± 0.038
TTGTAATGGG | 0.988 ± 0.019

Sequence | switch fluorescence ratio
AATTTTTTTT | 1.01 ± 0.043
TATTTGATGC | 1.02 ± 0.036
CGGGGGTCAA | 0.99 ± 0.011
TTTCAGATGG | 1.006 ± 0.0093
AGATATTTGG | 0.994 ± 0.018
TGTCAGTTGG | 1.02 ± 0.06
ATCGAAGGGA | 0.985 ± 0.041
GGGTGATCGA | 0.98 ± 0.054
TATAGTGGGG | 1.043 ± 0.0078
GCAGGGGCTC | 1 ± 0.027
GTGTTGAGAA | 0.98 ± 0.015
GCGAAAGTTG | 1.014 ± 0.0032
ACTGTTATTT | 1.0389 ± 0.00024
GTATGAATTA | 0.985 ± 0.033
GGGGTGAGAA | 1.02 ± 0.046
ATTAAACCAG | 1.1 ± 0.11
AAGGGAAGT | 1.02 ± 0.034
GGGAACGTCG | 1.011 ± 0.01
AGGCGCAGGT | 1.01 ± 0.021
CGTCGGGGGG | 1.008 ± 0.008
TTTTAGGTGT | 1.28 ± 0.26
GGGGAGGGTG | 1.05 ± 0.074
TCAATTTGTT | 0.992 ± 0.033
CGGTTTAGGC | 0.93 ± 0.026
AGATCGAACT | 0.994 ± 0.019

Sequence | switch fluorescence ratio
CATTCAGGGG | 1.2 ± 0.061
GAAGGTGGCT | 1.01 ± 0.026
TCGTCATGTT | 0.999 ± 0.015
CTTGAACGAA | 1.02 ± 0.04
CGTGATTACT | 1.17 ± 0.11
TGGGGAAAAA | 1.07 ± 0.11
GTTTCGGGTT | 0.986 ± 0.019
ATCGGCAGGC | 1.22 ± 0.075
GTTGATTTTA | 0.972 ± 0.014
TGGTCCATTT | 1.014 ± 0.0091
ATGAATAAGG | 0.983 ± 0.028
TCTGATTATG | 0.987 ± 0.011
ATTTGTCAAG | 0.999 ± 0.016
AGCATTAATT | 0.988 ± 0.043
AGTGGGTAGA | 1.04 ± 0.049
TTTCGGGACG | 0.987 ± 0.035
GTCCACAGGT | 1.69 ± 0.056
ATTTGCAATT | 1.03 ± 0.034
TCCTCGAGTA | 1.27 ± 0.027
AGCTATGCGC | 0.963 ± 0.056
TTTGTTAAGC | 0.973 ± 0.061
TTTTTCAGTG | 0.991 ± 0.039
AACGCATAGG | 1.176 ± 0.0078
GAAAATAGAT | 0.9663 ± 0.0028
TAGAGGCCTG | 1.04 ± 0.017

Sequence | switch fluorescence ratio
AGTAGTAAGT | 1.01 ± 0.012
AAGAGGGGCG | 1.022 ± 0.0032
AAATTGAGAG | 1.004 ± 0.0021
AAGGGTATTG | 0.995 ± 0.024
GTATTAGGGG | 1.01 ± 0.028
AGACTATGTG | 0.991 ± 0.024
GGGGGGGCAA | 1.24 ± 0.48
TTAAAATGTT | 1.0072 ± 0.00057
ATACGGGTAG | 0.9821 ± 0.0052
TTACGGAAT | 1.1 ± 0.14
TCGTTAATTT | 1.014 ± 0.0029
TTTTTCTTTG | 1.04 ± 0.065
CTGTCGTATG | 0.9749 ± 0.0082
TTTTGGTGG | 0.974 ± 0.033
TTGATCCAGC | 0.9958 ± 0.0068
GGATAAATGC | 1.02 ± 0.043
CGTTAGATT | 0.967 ± 0.011
GCAGGACGAC | 2.38 ± 0.49
CGTACATGAG | 1.02 ± 0.037
CGGGGATTGG | 1 ± 0.042
CGATCGGCTG | 0.993 ± 0.019
TATGGGTTTG | 0.994 ± 0.04
CTTAGTAATG | 1.05 ± 0.11
AGGGATGTAA | 0.992 ± 0.012
GGCGGGTAGA | 1.043 ± 0.0093

Sequence | switch fluorescence ratio
GCAACTGATC | 1.19 ± 0.031
GTTCTATCAT | 0.961 ± 0.022
TGATGAGGAG | 0.996 ± 0.014
GGGTAGGTTT | 1.02 ± 0.059
TGAGAGAGGG | 0.983 ± 0.012
GGACTTCTTG | 0.932 ± 0.045
GGGTTGTTGG | 0.9963 ± 0.0015
AGGACAGCAT | 1.07 ± 0.023
GCTGTTTTTC | 0.966 ± 0.03
GGTCGGGC | 0.969 ± 0.03
TCTGAGATAA | 1.0208 ± 0.00085
CCTAGTACCT | 1.19 ± 0.05
CGTGTCAGGG | 1 ± 0.034
TCTTGTATAA | 0.9758 ± 0.0029
TAGGACACGT | 1.03 ± 0.012
TATTTAAAGT | 1.02 ± 0.049
AAGATGGTGG | 1.004 ± 0.0057
TTTTGAATTG | 0.9841 ± 0.005
TTTATGGAGT | 1.024 ± 0.0018
TTAAAATGCT | 0.978 ± 0.011
TTCGTGCTTT | 0.995 ± 0.035
CGGACTAGGG | 1.04 ± 0.022
TGAAAACACG | 1.17 ± 0.22
GGGGTATATT | 0.9938 ± 0.0062
TTTATTGGCT | 1 ± 0.051

Sequence | switch fluorescence ratio
CGTTTAACGT | 0.989 ± 0.047
TAAAGGAATT | 1.05 ± 0.03
CGGGGTTGTG | 0.966 ± 0.014
ACAGGGGGGG | 1.07 ± 0.19
TCTAAGTCTT | 0.98 ± 0.042
AGAAAAGCTC | 1.02 ± 0.033
GCTTCTACAG | 1.047 ± 0.01
CTGGCATTTC | 1.37 ± 0.047
ACCGTAGGGG | 0.973 ± 0.016
CGGTACCGGG | 1.022 ± 0.0061
GTAATAAGGA | 0.994 ± 0.029
AAACGTGAGT | 0.985 ± 0.01
CGAGCATAGG | 1.23 ± 0.085
TATCCACATA | 1.1 ± 0.013
TGACGGGAAT | 1.01 ± 0.013
CACTCTAGGC | 1.07 ± 0.02
CGGTACAAGT | 1 ± 0.032
GCTTGGGGTC | 0.953 ± 0.011
CGGCGGGAGT | 1.019 ± 0.0073
ATTATACCTT | 1.182 ± 0.011
GTTGAGGTCC | 1.02 ± 0.041
TGGGTTTTTG | 1.01 ± 0.039
ATGGGCTCTT | 1.04 ± 0.049
GCACTTGGTG | 1.02 ± 0.024
GGCGGTTAAG | 1.013 ± 7.9e-05

Sequence | switch fluorescence ratio
TCTTAAGTGC | 1.07 ± 0.026
AAGTTCGCCA | 0.994 ± 0.01
CAATAAGGGG | 1.04 ± 0.1
CATAACTAAA | 1 ± 0.012
TATGTTGGGT | 1.02 ± 0.037
ACGGGTGGGT | 1.08 ± 0.15
TTTCCCTTCT | 1.05 ± 0.06
AAGGATGTAA | 0.995 ± 0.03
CGTATCCGGT | 1.03 ± 0.0019
AGGGGGCGGC | 0.995 ± 0.031
CGTTCTTCGC | 1.07 ± 0.094
TAGTCTGCGT | 1.04 ± 0.037
TGGTTGGCGT | 1.04 ± 0.066
CGGTTAAGGG | 0.982 ± 0.038
GGTTTTGTGT | 0.962 ± 0.038
ATGATAGTCG | 0.993 ± 0.013
TTTGATGCGT | 1.018 ± 0.0095
CTGTGCTAAT | 1.1 ± 0.037
GTTTGTTGTT | 0.9819 ± 0.0016
TTGCTATAGA | 1.01 ± 0.017
GCAGTTAAGT | 1 ± 0.037
GGTTGCTAGG | 0.9916 ± 0.0037
TCATTGGACT | 0.98 ± 0.023
GGGGGAGGTC | 0.989 ± 0.021
GAGTTTAGGA | 0.969 ± 0.034
